Results on six molecules are retold here after patent publication US9562084B2, “Peptides derived from NCAPG2 and their use” (NATIONAL CANCER CENTER, priority 2014, dated 2017).

Test [1] addresses T1, human PLK1-PBD (371-594) (Homo sapiens, UniProt P53350).
T1 construct: The human PLK1-PBD (371-594) was amplified by PCR; GST (N, cleaved yes); made in house; host or cells: E. coli Rosetta2(DE3)pLysS
In words: Fluorescence polarisation binding assay for the PBD of PLK1. The settings on record: FITC-labelled peptide 10 nM, protein 0 to 4 μM. As to the method: The human PLK1-PBD (371-594) was amplified by PCR and cloned into the pGEX6p-1 vector using the EcoRI and XhoI restriction enzyme sites. The protein was overexpressed in E. coli Rosetta2(DE3)pLysS cells (Novagen). The cells were grown at 37° C. in 3 L of Terrific Broth medium to an OD600 of 0.6, and recombinant protein expression was induced with 0.1 mM isopropyl β-D-thiogalactopyranoside (IPTG) at 20° C. The cells were further grown at 20° C. for 20 hr after IPTG induction. The purification methods were similar to methods that have been previously reported (Cheng, K. Y., et al. The crystal structure of the human polo-like kinase-1 polo box domain and its phospho-peptide complex. EMBO J 22, 5757-68 (2003)). Briefly, the cell pellet was resuspended in ice-cold HBS buffer (10 mM HEPES pH 7.5, 200 mM NaCl, 3.4 mM EDTA, 0.01% (v/v) 1-thioglycerol) and homogenized by sonication. After sonication, the cell debris was centrifuged and supernatant was applied to GST Sepharose resin (GE Healthcare). After extensive washing with HBS buffer, protein was eluted with HBS buffer supplemented with 20 mM reduced glutathione. PreScission protease (GE Healthcare) was added to eluted protein in order to remove the fused GST and the cleavage product was diluted and re-passed through GST Sepharose column. The flow through was collected and applied to Superdex 75 prep grade column (GE Healthcare) equilibrated with HBS buffer. The purified protein was concentrated to 6 mg/ml and used for fluorescence polarization binding assay or crystal screening.
For the fluorescence polarisation binding assay, FITC-labelled 1010pT (GVLSpTLI) or 1010T (GVLSTLI) (SEQ ID NO: 8) peptide was mixed with purified PBD and incubated in a buffer containing 10 mM HEPES (pH7.5), 50 mM NaCl, 1 mM EDTA, 1 mM DTT, and 0.0025% (v/v) Tween 20. The final protein concentrations ranged from 0 to 4 μM, and the final peptide concentration was 10 nM. Fluorescence polarisation was analysed 30 min after mixing the peptide and proteins in a 96-well plate using a VERSAmax microplate reader (Molecular Devices). Binding curves were fitted using GraphPad Prism software (GraphPad Software).
The human PLK1-PBD (371-594), PLK2-PBD (451-685) and PLK3-PBD (412-646) genes were cloned into pGEX6p-1 vector using EcoRI/XhoI restriction sites. […] The purified PLK-PBD proteins were concentrated and used for the fluorescence polarization binding assay.
For the fluorescence polarization binding assay, each fluorescein isothiocyanate (FITC)-labeled 1010pT (GVLSpTLI), 1010T (GVLSTLI), 1010E (GVLSELI), or 1010D (GVLSDLI) peptide was mixed with purified PLK1, PLK2 or PLK3 and incubated in a buffer containing 10 mM HEPES (pH 7.5), 50 mM NaCl, 1 mM EDTA, 1 mM DTT and 0.0025% (v/v) Tween 20. […]
(Fluorescence polarisation rises when a labelled molecule tumbles more slowly, as on binding a larger partner.)

The subject of test [2] is HuR-7 human hepatoma cell. In words: Cell survival and nucleus morphology of hepatoma cells treated with FITC-tagged NCAPG2 peptides (Opera Phenix). The following applies: HuR-7, FITC-tagged peptide. The format is cell-based. The source says: FIG. 12 illustrates NCAPG2 p The1010 (VLSpTL) and NCAPG2 The1010 (VLSTL) peptide decreased cell survival and induced mitotic defect in HuR-7 human hepatoma cell. Cell survival and nucleus morphology were detected from Opera Phenix system (PerkinElmer).

Test [3] deals with T2, PLK1 (Homo sapiens, UniProt P53350).
T2 construct: expressed in transfected cells
T2 sequence (P53350 whole entry): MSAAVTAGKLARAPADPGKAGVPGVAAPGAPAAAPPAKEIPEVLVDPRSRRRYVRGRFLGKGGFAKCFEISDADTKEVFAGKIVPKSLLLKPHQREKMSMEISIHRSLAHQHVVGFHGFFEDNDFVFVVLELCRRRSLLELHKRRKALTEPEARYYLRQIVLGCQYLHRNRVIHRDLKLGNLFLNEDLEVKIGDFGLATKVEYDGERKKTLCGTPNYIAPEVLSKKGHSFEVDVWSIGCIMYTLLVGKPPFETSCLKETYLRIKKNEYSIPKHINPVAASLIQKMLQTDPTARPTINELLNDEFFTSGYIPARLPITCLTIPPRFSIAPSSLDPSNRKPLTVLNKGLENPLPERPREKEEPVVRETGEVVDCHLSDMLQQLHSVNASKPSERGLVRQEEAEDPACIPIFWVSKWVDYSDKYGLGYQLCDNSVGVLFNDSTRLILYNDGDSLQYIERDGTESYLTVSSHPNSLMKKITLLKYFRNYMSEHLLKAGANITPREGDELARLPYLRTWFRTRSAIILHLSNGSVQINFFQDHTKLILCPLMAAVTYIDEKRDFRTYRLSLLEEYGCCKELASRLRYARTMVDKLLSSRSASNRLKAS
In words: Pull down assay / immunoprecipitation of Flag-tagged NCAPG2 mutants with GST-tagged PLK1. Format: binding. The source says:
The NCAPG2 expression vectors were constructed using pcDNA3.1, pCMV-3FLAG-1, and pLL3.7 vectors with KpnI/XhoI, EcoRV/XhoI, and SmaI/XhoI restriction enzyme sites, respectively. To produce siRNA-resistant NCAPG2 mutants (Lenti-NCAPG2^R), the mutants (forward primer: 5′ GAAGACTACCTGAAGCTTCACAGA GTGATT TATCAGCAAATTATCCAGACCTACCTG-3′ (SEQ ID NO: 3), reverse primer: 5′-CAGGTAGGTCTGGATAATTTGCTGATAAATCACTCTGTGAAGCTTCAGGTAGTCTTCTTC-3′ (SEQ ID NO: 4)) were generated using a QuikChange Site-Directed Mutagenesis Kit (Stratagene). […]
For the detection of proteins using the immunoblottings, subjects were protein complexes from immunoprecipitation or whole cell lysates harvested from indicated conditions. […] Protein concentration was determined using BCA™ protein assay kit (Pierce, Rockford, USA). […] Protein expressions detected chemiluminescent signals activated by SuperSignal West Pico Chemiluminescent Substrate (Pierce Rockford, Ill., USA) reacted with horse radish peroxidase tagged secondary antibodies (Jackson ImmunoResearch Laboratories, Inc., West Grove, USA).

Positions count from the first letter of the chain named. Numbers in names are those of the source. Where no end group is shown, it is not given here. [ ]: non-standard residue; d: D form. pT = C[C@@H](OP(=O)(O)O)[C@H](N)C(=O)O

T1 sequence (P53350 371-594): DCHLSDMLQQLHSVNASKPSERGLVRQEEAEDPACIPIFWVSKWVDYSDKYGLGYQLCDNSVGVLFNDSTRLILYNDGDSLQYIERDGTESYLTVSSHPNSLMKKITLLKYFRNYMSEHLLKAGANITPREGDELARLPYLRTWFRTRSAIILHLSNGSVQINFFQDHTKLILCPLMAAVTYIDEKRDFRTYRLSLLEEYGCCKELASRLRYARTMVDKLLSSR

Turning to “GVLSDLI [1010D, 7-mer peptide with aspartate as phosphor-Thr mimetic]”, the “binding to PLK1-PBD (in words)” value in test [1] is recorded as “did not bind”.
The same measure, in the same setting: the value for “GVLSELI [1010E, 7-mer peptide with glutamate as phosphor-Thr mimetic]” was “did not bind”.
For the molecule “VLSTL (listed as Homo sapiens) [NG2 The1010]”, in test [2], the effect on mitosis result was “induced abnormal mitosis” and the “survival rate of human liver cancer cell” value was “lowered survival rate”.
For “VLSpTL (VLS[pT]L; listed as Homo sapiens) [NG2 p The1010, phosphorylated 5-mer NCAPG2 peptide comprising residue 1010]”, in that order: “induced abnormal mitosis” and “lowered survival rate”.

B1: T1010A: NCAPG2 mutant which substituted threonine with alanine at the residue number 1010 of SEQ ID NO: 7 (protein, listed as Homo sapiens)
chain: MEKRETFVQAVSKELVGEFLQFVQLDKEASDPFSLNELLDELSRKQKEELWQRLKNLLTDVLLESPVDGWQVVEAQGEDNMETEHGSKMRKSIEIIYAITSVILASVSVINESENYEALLECVIILNGILYALPESERKLQSSIQDLCVTWWEKGLPAKEDTGKTAFVMLLRRSLETKTGADVCRLWRIHQALYCFDYDLEESGEIKDMLLECFININYIKKEEGRRFLSCLFNWNINFIKMIHGTIKNQLQGLQKSLMVYIAEIYFRAWKKASGKILEAIENDCIQDFMFHGIHLPRRSPVHSKVREVLSYFHHQKKVRQGVEEMLYRLYKPILWRGLKARNSEVRSNAALLFVEAFPIRDPNLHAIEMDSEIQKQFEELYSLLEDPYPMVRSTGILGVCKITSKYWEMMPPTILIDLLKKVTGELAFDTSSADVRCSVFKCLPMILDNKLSHPLLEQLLPALRYSLHDNSEKVRVAFVDMLLKIKAVRAAKFWKICPMEHILVRLETDSRPVSRRLVSLIFNSFLPVNQPEEVWCERCVTLVQMNHAAARRFYQYAHEHTACTNIAKLIHVIRHCLNACIQRAVREPPEDEEEEDGREKENVTVLDKTLSVNDVACMAGLLEIIVILWKSIDRSMENNKEAKLYTINKFASVLPEYLKVFKDDRCKIPLFMLMSFMPASAVPPFSCGVISTLRSREEGAVDKSYCTLLDCLCSWGQVGHILELVDNWLPTEHAQAKSNTASKGRVQIHDTRPVKPELALVYIEYLLTHPKNRECLLSAPRKKLNHLLKALETSKADLESLLQTPGGKPRGFSEAAAPRAFGLHCRLSIHLQHKFCSEGKVYLSMLEDTGFWLESKILSFIQDQEEDYLKLHRVIYQQIIQTYLTVCKDVVMVGLGDHQFQMQLLQRSLGIMQTVKGFFYVSLLLDILKEITGSSLIQKTDSDEEVAMLLDTVQKVFQKMLECIARSFRKQPEEGLRLLYSVQRPLHEFITAVQSRHTDTPVHRGVLSALIAGPVVEISHQLRKVSDVEELTPPEHLSDLPPFSRCLIGIIIKSSNVVRSFLDELKACVASNDIEGIVCLTAAVHIILVINAGKHKSSKVREVAATVHRKLKTFMEITLEEDSIERFLYESSSRTLGELLNS
For the molecule B1, in test [3], the “binding of NCAPG2 mutant to PLK1” value is reported as “inhibited”.

B2: T805A: NCAPG2 mutant which substituted threonine with alanine at the residue number 805 of SEQ ID NO: 7 (protein, listed as Homo sapiens)
chain: B1 chain with T805A, A1010T
As to B2, in test [3], the “binding of NCAPG2 mutant to PLK1” value is “inhibited”.
